Where a chain is given by its changes, count along the chain named. In names and notes the source's numbering stands. Where two headings read alike, the source gives them in different places. Values belong to the molecule of their own block, whether it stands above or below them.
Experiments:
[1] = biological target: T1, human Claudin 18.2 (CLDN18.2) (human, UniProt P56856-2 1-261); assay: FACS Exp. 1, MFI ratio CHO-18.2 over CHO-18.1
[2] = biological target: T1, human Claudin 18.2 (CLDN18.2); assay: FACS Exp. 2, MFI ratio CHO-18.2 over CHO-18.1
[3] = biological target: CLDN18.2 endogenously expressed on SNU620 gastric cancer cells (UniProt P56856); assay: FACS Exp. 3, SNU620 cells
[4] = biological target: T1, human Claudin 18.2 (CLDN18.2); assay: FACS on CHO-CLDN18.2 cells
Description: Binding curves were generated to rank the binding affinities of hybridoma antibodies. Briefly, a total of 1×10⁵ CHO-CLDN18.2 cells for each well were seeded in 96-well plate and washed by FACS buffer (DPBS containing 2% FBS) twice. Cells were incubated by series diluted purified hybridoma antibodies for 1 h. After primary antibody incubation, cells were washed by FACS buffer for two times. […] FlowJo software was used for analysis. Data was plotted as the logarithm of antibody concentration versus mean fluorescence signals. Nonlinear regression analysis was performed by GraphPad Prism 6 (GraphPad Software) and EC50 values were calculated.

[5] = biological target: T1, human Claudin 18.2 (CLDN18.2); assay: FACS
[6] = biological target: T1, human Claudin 18.2 (CLDN18.2); assay: FACS on CHO-CLDN18.2 cells; remark: listed apart in the source
[7] = biological target: T1, human Claudin 18.2 (CLDN18.2); assay: cell-based or functional assay
[8] = biological target: T1, human Claudin 18.2 (CLDN18.2); assay: cell-based or functional assay; remark: listed apart in the source
[9] = biological target: T1, human Claudin 18.2 (CLDN18.2); assay: cell-based or functional assay; remark: listed apart in the source
[10] = biological target: T1, human Claudin 18.2 (CLDN18.2); assay: cell-based or functional assay; remark: listed apart in the source
[11] = biological target: T1, human Claudin 18.2 (CLDN18.2); assay: FACS on CHO-CLDN18.2 cells; remark: listed apart in the source
[12] = biological target: T2, CLDN18.2 endogenously expressed on SNU620 gastric cancer cells (UniProt P56856-2 1-261, limits assumed); assay: FACS Exp. 3, SNU620 cells
T2 construct: whole, on cells; also called SU620

[13] = biological target: T1, human Claudin 18.2 (CLDN18.2); assay: cell-based or functional assay; remark: listed apart in the source
[14] = biological target: T1, human Claudin 18.2 (CLDN18.2); assay: cell-based or functional assay; remark: listed apart in the source
[15] = biological target: T1, human Claudin 18.2 (CLDN18.2); assay: FACS on CHO-CLDN18.2 cells; remark: listed apart in the source

MFI CHO-18.2/CHO-18.1 (@30 ug/ml) [1]: 1.1
MFI CHO-18.2/CHO-18.1 (@30 ug/ml) [2]: 1
MFI SNU620 (@30 ug/ml) [3]: 15.7 MFI
Molecule: human IgG1 isotype control (antibody)

EC50 [4]: 3.26 nM
B1: 357B8F8 (mouse hybridoma antibody) (antibody, V domains shown)
VH: QVQLKESGPGLVAPSQSLSITCTVSGFSLTSYGVHWVRQPPGKGLEWLGVIWPGGNTNYNSALMSRLSISKDNSKSQVFLKMNSLQTDDTAMYYCARDRRLAMDYWGQGTSVTVSS
VL: DIVMTQSPSSLTVTAGEKVTMTCKSSQSLLNSGNQKNYLTWYQQKPGQPPKLLIYWASTRESGVPDRFTGSGSGTDFTLTISILQAEDLAVYYCQNDYSYPFTFGSGTKLEIK
notes: purified mouse IgG from hybridoma

binding result [5]: binds
B2: 413H9F8-VL-N31E (antibody, human IgG1, kappa, V domains shown)
VH: DVQLVESGGGSVQPGGSRRLSCAASGFTFSSFGMHWVRQAPEKGLEWVAYISSGSSPIYYVDKLKGRFTVSRDNPKNTLFLQMTSLRSEDTAMYYCARAGYAVRNALDYWGQGTSITVSS
VL: DIVMTQSPSSLSVSVGEKVTLSCKSSQSLLESGNQKNYLAWYQQKTGQPPKLLIYGASTRESGVPDRFIGSGSGTDFTLTISSVQAEDLAVYFCQNDLFYPLTFGAGTKLELKR
notes: chimeric human IgG1, PTM site removed

EC50 [4]: 8.3 nM
B3: 413H9F8 (mouse hybridoma antibody) (antibody, V domains shown)
VH: B2 VH
VL: DIVMTQSPSSLSVSVGEKVTLSCKSSQSLLNSGNQKNYLAWYQQKTGQPPKLLIYGASTRESGVPDRFIGSGSGTDFTLTISSVQAEDLAVYFCQNDLFYPLTFGAGTKLELK
notes: as for B1

EC50 [6]: 1.97 nM
CDC EC50, human serum, CHO-CLDN18.2 [7]: 0.84 nM
ADCC EC50, NUGC4-CLDN18.2, PBMC [8]: 6.14 nM
ADCC EC50, NUGC4-CLDN18.2, PBMC [9]: 0.48 nM
% ADCC @ 6.67 nM, NCI-N87-CLDN18.2, FcR-TANK [10]: 13.7%
ADCC EC50, NCI-N87-CLDN18.2, FcR-TANK [10]: 0.33 nM
B4: 413H9F8-H2L2 (antibody, V domains shown)
VH: EVQLVESGGGLVQPGGSLRLSCAASGFTFSSFGMHWVRQAPGKGLEWVAYISSGSSPIYYVDKLKGRFTISRDNAKNSLYLQMNSLRAEDTAVYYCARAGYAVRNALDYWGQGTLVTVSS
VL: DIVMTQSPDSLAVSLGERATINCKSSQSLLNVGNQKNYLAWYQQKPGQPPKLLIYGASTRESGVPDRFSGSGSGTDFTLTISSLQAEDVAVYFCQNDLFYPLTFGGGTKVEIK
notes: humanized IgG; constant regions not specified
% specific cytotoxicity @ 6.67 nM, NUGC4-CLDN18.2, PBMC [8]: 33.2%

ADCC EC50, NUGC4-CLDN18.2, PBMC [9]: 0.0148 nM
B5: 413H9F8-H2L2-V2-DL (antibody, V domains shown)
VH: B4 VH
VL: B4 VL

ADCC EC50, NUGC4-CLDN18.2, PBMC [9]: 0.0046 nM
B6: 413H9F8-H2L2-MG-DL (antibody, V domains shown)
VH: B4 VH
VL: B4 VL

MFI_CHO-18.2/CHO-18.1 (@30 ug/ml) [1]: 811
EC50 [11]: 4.45 nM
CDC EC50, human serum, CHO-CLDN18.2 [7]: 10.4 nM
MFI_SNU620 (@30 ug/ml) [12]: 1520 MFI
ADCC EC50, NCI-N87-18.2 cells, FcR-TANK effectors [13]: 73.2 nM
MFI_CHO-18.2/CHO-18.1 (@30 ug/ml) [2]: 768
% ADCC @ 6.67 nM, NCI-N87-CLDN18.2, FcR-TANK [10]: 14.6%
ADCC EC50, NCI-N87-CLDN18.2, FcR-TANK [10]: 2.25 nM
ADCC EC50, NUGC4-CLDN18.2 cells, PBMC (1 donor) [14]: 9.52 nM
B7: 282A12F3 (T62A) (antibody, human IgG1, kappa, V domains shown)
VH: QVQLKESGPVLVQPSQTLSLTCTVAGFSLTSYNVYWVRQPPGKGLEWMGVIWNTGATRYNSALKSRLSISKDTSKSQVFLKMNSLQTEDTATYYCARDSAMPAIPFAYWGQGTLVTVSS
VL: DIVMTQSPSSLAVSAGETVTINCKSSQSLFGSVRQKNYLAWYQQKPGQSPKLLIYLASTRESGVPDRFIGSGSGTDFTLTISSVQAEDLAKYYCQQYYDIPWTFGGGTKLELKR
notes: chimeric human IgG1, PTM site removed; also called 282A12F3-VH-NSA (T62A); 282A12 (T62A)
% specific cytotoxicity @ 6.67 nM, NUGC4-CLDN18.2, PBMC [14]: 21%

binding result [5]: binds
B8: 282A12F3-VH-N60Q (antibody, human IgG1, kappa, V domains shown)
VH: B7 VH with N60Q, A62T
VL: B7 VL
notes: as for B2

binding result [5]: binds
B9: 282A12F3-VH-N60E (antibody, human IgG1, kappa, V domains shown)
VH: B7 VH with N60E, A62T
VL: B7 VL
notes: as for B2

binding result [5]: binds
B10: 364D1A7-VL-N31E (antibody, human IgG1, kappa, V domains shown)
VH: DVQLVESGGGLVQPGGSRKLSCAASGFTFSSFGMHWVRQAPEKGLEWVAYISSGSGSIYYADTVKGRFTLSRDNPKNTLFLQMTSLRSEDTAIYYCATSYYYGNALEYWGQGTSVTVSS
VL: DVVLTQSPSSLTVTEGEKVSMSCKSSQSLFESGNQKNYLTWYQQKPGQTPTLLIYWASTRKSGVPDRFTGSGSGTDFTLTINTVQAEDLAVYYCQNVYSYPLTFGAGTKLDLKR
notes: as for B2

EC50 [4]: 5.22 nM
B11: 364D1A7 (mouse hybridoma antibody) (antibody, V domains shown)
VH: B10 VH
VL: DVVLTQSPSSLTVTEGEKVSMSCKSSQSLFNSGNQKNYLTWYQQKPGQTPTLLIYWASTRKSGVPDRFTGSGSGTDFTLTINTVQAEDLAVYYCQNVYSYPLTFGAGTKLDLK
notes: as for B1

MFI_CHO-18.2/CHO-18.1 (@30 ug/ml) [1]: 262
MFI SNU620 (@30 ug/ml) [3]: 69.6 MFI
B12: hz282-1 (antibody, V domains shown)
VH: QVQLQESGPGLVKPSETLSLTCTVSGFSLTSYNVYWIRQPPGKGLEWIGVIWNTGATRYNSALKSRVTISVDTSKNQFSLKLSSVTAADTAVYYCARDSAMPAIPFAYWGQGTLVTVSS
VL: DIVMTQSPDSLAVSLGERATINCKSSQSLFGSVRQKNYLAWYQQKPGQPPKLLIYLASTRESGVPDRFSGSGSGTDFTLTISSLQAEDVAVYYCQQYYDIPWTFGGGTKVEIK
notes: humanized IgG; constant regions not specified; also called hz282-l

MFI_CHO-18.2/CHO-18.1 (@30 ug/ml) [1]: 201
MFI SNU620 (@30 ug/ml) [3]: 144 MFI
B13: hz282-13 (antibody, V domains shown)
VH: B12 VH
VL: DIQMTQSPSSLSASVGDRVTITCKSSQSLFGSVRQKNYLAWYQQKPGKSPKLLIYLASTRESGVPDRFSGSGSGTDFTLTISSLQPEDFAKYYCQQYYDIPWTFGGGTKVEIK
notes: as for B4

MFI_CHO-18.2/CHO-18.1 (@30 ug/ml) [1]: 249
MFI SNU620 (@30 ug/ml) [3]: 176 MFI
B14: hz282-17 (antibody, V domains shown)
VH: B12 VH
VL: B13 VL with Q3V, T22N
notes: as for B4

MFI_CHO-18.2/CHO-18.1 (@30 ug/ml) [1]: 310
MFI SNU620 (@30 ug/ml) [3]: 135 MFI
B15: hz282-5 (antibody, V domains shown)
VH: B12 VH
VL: B12 VL with P49S, V91K
notes: as for B4

MFI_CHO-18.2/CHO-18.1 (@30 ug/ml) [1]: 163
MFI SNU620 (@30 ug/ml) [3]: 308 MFI
B16: hz282-9 (antibody, V domains shown)
VH: B12 VH
VL: B13 VL with S49A, D66S, K91T
notes: as for B4

EC50 [6]: 7.52 nM
MFI_CHO-18.2/CHO-18.1 (@30 ug/ml) [1]: 1030
EC50 [15]: 7.24 nM
EC50 [11]: 9.32 nM
CDC EC50, human serum, CHO-CLDN18.2 [7]: 2.26 nM
ADCC EC50, NCI-N87-18.2 cells, FcR-TANK effectors [13]: 96.4 nM
MFI_CHO-18.2/CHO-18.1 (@30 ug/ml) [2]: 1390
% ADCC @ 6.67 nM, NCI-N87-CLDN18.2, FcR-TANK [10]: 11.9%
ADCC EC50, NUGC4-CLDN18.2 cells, PBMC [14]: 9.21 nM
B17: reference antibody 175D10 (xi175D10) (antibody, human IgG1, kappa, V domains shown)
VH: QVQLQQPGAELVRPGASVKLSCKASGYTFTSYWINWVKQRPGQGLEWIGNIYPSDSYTNYNQKFKDKATLTVDKSSSTAYMQLSSPTSEDSAVYYCTRSWRGNSFDYWGQGTTLTVSS
VL: DIVMTQSPSSLTVTAGEKVTMSCKSSQSLLNSGNQKNYLTWYQQKPGQPPKLLIYWASTRESGVPDRFTGSGSGTDFTLTISSVQAEDLAVYYCQNDYSYPFTFGSGTKLEIKR
notes: Fc variant D356/L358; also called chimeric 175D10
% specific cytotoxicity @ 6.67 nM, NUGC4-CLDN18.2, PBMC [14]: 16.8%

EC50 [4]: 3.68 nM
B18: Ms175D10 (antibody, V domains shown)
VH: B17 VH
VL: B1 VL with T22S, I83S, L84V

— patent US20210380680A1 (ZLLP, published 2021)
